For 1 molecule, percentage of activated basophils, one subject results are on record in US20240350600A1.

The target in this experiment is cell-bound IgE on basophils of peanut-allergic subjects. The experiment is described as follows: cell-based or functional assay.

As for NNFGKLFEVKPDKKNPQLQ [Ara h 1 combined epitope peptide (409-427)], the percentage of activated basophils, one subject turned out to be 8%.
